Results on one protein are retold here after PMC8137924, “Structural basis for allosteric regulation of Human Topoisomerase IIα” (Nature Communications, 2021).

The data set concerns the molecule itself. The data set is described as follows: cryo-EM structure; hTopo IIα with 30 bp doubly nicked DNA (1:1, 20 µM), 0.5 mM etoposide, 0.5 mM ADPNP, cross-linked with 1 mM BS3; 20 mM Hepes, 100 mM KAc, 50 mM Na-glutamate, 5 mM MgAc2, 0.5 mM TCEP, pH 7.5, 8 mM CHAPSO; single-particle analysis, State 1 (closed) and State 2 (pre-open).

B1: full-length human Topo IIα (1–1531) (enzyme, UniProt P11388 1-1531, looked up)
chain: MEVSPLQPVNENMQVNKIKKNEDAKKRLSVERIYQKKTQLEHILLRPDTYIGSVELVTQQMWVYDEDVGINYREVTFVPGLYKIFDEILVNAADNKQRDPKMSCIRVTIDPENNLISIWNNGKGIPVVEHKVEKMYVPALIFGQLLTSSNYDDDEKKVTGGRNGYGAKLCNIFSTKFTVETASREYKKMFKQTWMDNMGRAGEMELKPFNGEDYTCITFQPDLSKFKMQSLDKDIVALMVRRAYDIAGSTKDVKVFLNGNKLPVKGFRSYVDMYLKDKLDETGNSLKVIHEQVNHRWEVCLTMSEKGFQQISFVNSIATSKGGRHVDYVADQIVTKLVDVVKKKNKGGVAVKAHQVKNHMWIFVNALIENPTFDSQTKENMTLQPKSFGSTCQLSEKFIKAAIGCGIVESILNWVKFKAQVQLNKKCSAVKHNRIKGIPKLDDANDAGGRNSTECTLILTEGDSAKTLAVSGLGVVGRDKYGVFPLRGKILNVREASHKQIMENAEINNIIKIVGLQYKKNYEDEDSLKTLRYGKIMIMTDQDQDGSHIKGLLINFIHHNWPSLLRHRFLEEFITPIVKVSKNKQEMAFYSLPEFEEWKSSTPNHKKWKVKYYKGLGTSTSKEAKEYFADMKRHRIQFKYSGPEDDAAISLAFSKKQIDDRKEWLTNFMEDRRQRKLLGLPEDYLYGQTTTYLTYNDFINKELILFSNSDNERSIPSMVDGLKPGQRKVLFTCFKRNDKREVKVAQLAGSVAEMSSYHHGEMSLMMTIINLAQNFVGSNNLNLLQPIGQFGTRLHGGKDSASPRYIFTMLSSLARLLFPPKDDHTLKFLYDDNQRVEPEWYIPIIPMVLINGAEGIGTGWSCKIPNFDVREIVNNIRRLMDGEEPLPMLPSYKNFKGTIEELAPNQYVISGEVAILNSTTIEISELPVRTWTQTYKEQVLEPMLNGTEKTPPLITDYREYHTDTTVKFVVKMTEEKLAEAERVGLHKVFKLQTSLTCNSMVLFDHVGCLKKYDTVLDILRDFFELRLKYYGLRKEWLLGMLGAESAKLNNQARFILEKIDGKIIIENKPKKELIKVLIQRGYDSDPVKAWKEAQQKVPDEEENEESDNEKETEKSDSVTDSGPTFNYLLDMPLWYLTKEKKDELCRLRNEKEQELDTLKRKSPSDLWKEDLATFIEELEAVEAKEKQDEQVGLPGKGGKAKGKKTQMAEVLPSPRGQRVIPRITIEMKAEAEKKNKKKIKNENTEGSPQEDGVELEGLKQRLEKKQKREPGTKTKKQTTLAFKPIKKGKKRNPWSDSESDRSSDESNFDVPPRETEPRRAATKTKFTMDLDSDEDFSDFDEKTDDEDFVPSDASPPKTKTSPKLSNKELKPQKSVVSDLEADDVKGSVPLSSSPPATHFPDETEITNPVPKKNVTVKKTAAKSQSSTSTTGAKKRAAPKGTKRDPALNSGVSQKPDPAKTKNRRKRKPSTSDDSDSNFEKIVSKAVTSKKSKGESDDFHMDFDSAVAPRAKSVRAKKPIKYLEESDEDDLF
notes: human DNA topoisomerase IIα (TOP2A gene), full length, residues 1-1531; Homodimer; Tags were removed with P3C (PreScission) protease; also called hTopo IIα; human topoisomerase IIα isoform; source: BHK21 C13-2P cells infected with recombinant MVA-T7 virus, purified (Ni chelating resin, StrepTrap, heparin); not shown: Twin-strep, N-terminal, cleaved; His10, C-terminal, cleaved
For B1, the binding result is listed as “binds”.
